The target in assay [1] is hGLP-1R on the cell membrane (HEK293 cells overexpressing hGLP-1R) (human) (UniProt P43220). The assay can be described thus: cell-based or functional assay.
For assay [2], the target named is monkey GLP-1R (JN033215.1) on HEK293 cells (monkey). Put plainly: cell-based or functional assay.

hGLP-1R on the cell membrane (HEK293 cells overexpressing hGLP-1R) (human), sequence (P43220 24-463): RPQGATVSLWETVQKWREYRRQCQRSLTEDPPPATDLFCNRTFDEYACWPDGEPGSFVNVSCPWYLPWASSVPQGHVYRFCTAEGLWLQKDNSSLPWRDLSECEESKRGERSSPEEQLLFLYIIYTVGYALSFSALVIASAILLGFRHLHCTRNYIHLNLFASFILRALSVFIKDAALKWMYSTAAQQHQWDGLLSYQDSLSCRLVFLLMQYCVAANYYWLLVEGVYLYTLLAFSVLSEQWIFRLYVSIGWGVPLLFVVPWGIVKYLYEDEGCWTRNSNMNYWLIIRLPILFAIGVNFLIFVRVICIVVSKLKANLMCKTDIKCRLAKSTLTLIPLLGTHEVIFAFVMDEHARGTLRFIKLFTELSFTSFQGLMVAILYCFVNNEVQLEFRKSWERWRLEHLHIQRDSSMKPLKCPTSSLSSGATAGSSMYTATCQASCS

B1: P16891 (antibody, human IgG4 S228P, kappa)
heavy: QVQLVQSGAEMKKPGASVKVSCKTSGYRFSTYVISWVRQTPGQGLEWMGWISPYTGDIDYAQKFQGRVTITADESTSTAYMELSRLRSDDTAVYYCAREREGYNFPGMDVWGQGTTVTVSSASTKGPSVFPLAPCSRSTSESTAALGCLVKDYFPEPVTVSWNSGALTSGVHTFPAVLQSSGLYSLSSVVTVPSSSLGTKTYTCNVDHKPSNTKVDKRVESKYGPPCPPCPAPEFLGGPSVFLFPPKPKDTLYITREPEVTCVVVDVSQEDPEVQFNWYVDGVEVHNAKTKPREEQFNSTYRVVSVLTVLHQDWLNGKEYKCKVSNKGLPSSIEKTISKAKGQPREPQVYTLPPSQEEMTKNQVSLTCLVKGFYPSDIAVEWESNGQPENNYKTTPPVLDSDGSFFLYSRLTVDKSRWQEGNVFSCSVMHEALHNHYTQKSLSLSLGK
light: DIQLTQSPSFLSASVGDRVTITCRASQGISSYLAWYQQKPGRAPKLLIYSASTLQRGVPSRFSGSGSGTDFTLTISSLQPEDYATYYCQQAESFPPSFGPGTKVDIKRTVAAPSVFIFPPSDEQLKSGTASVVCLLNNFYPREAKVQWKVDNALQSGNSQESVTEQDSKDSTYSLSSTLTLSKADYEKHKVYACEVTHQGLSSPVTKSFNRGEC
Turning to B1, the IC50, inhibition of GLP-1 (2.5 ng/ml) activity in hGLP-1R-CRE-Luciferase-HEK293 reporter gene assay in assay [1] came out at 17.2 nM. The molecule further gave an IC50, inhibition of GLP-1 (2.5 ng/mL) activity in monkey GLP-1R-CRE-Luciferase-HEK293 reporter gene assay in assay [2] of 13.8 nM.

Source of the values: patent publication US20260042854A1, “ANTI-GLP-1R ANTIBODIES AND USES THEREOF” (SCIWIND BIOSCIENCES USA CO., LTD, priority 2022, published 2026).
